Consider 2 molecules from patent publication US12258605B2, “Alkane oxidation by modified hydroxylases” (The California Institute of Technology, priority 2005, dated 2025).

Data set [1] is described as follows: NADPH oxidation/consumption rates and coupling efficiency. The format is biochemical. On the procedure: NADPH oxidation rates were measured over 20 s at 25° C. using a BioSpec-1601 UV-Vis spectrophotometer (Shimadzu, Columbia, MD) and 1 cm pathlength cuvettes. […] The reaction was initiated by the addition of NADPH and the decrease in absorption at 340 nm was monitored. NADPH consumption rates were also measured without substrate (see Table 2).
The coupling efficiency is estimated from product formation rate/NADPH oxidation rate. In general, NADPH oxidation rates cannot be measured on the same time scale as ethanol formation rates.
For the data shown in Table 6 the initial NADPH consumption rates were measured over 15 seconds at 340 nm as nmol NADPH/min/nmol protein. Octane reactions contained 100 nM P450, 166 uM NADPH, and 4 mM octane in 1% ethanol and potassium phosphate buffer. […] Errors are at most 10%. Initial rates were measured by GC over 1 minute as nmol total products/min/nmol protein. Octane reactions contained 100 nM P450, 500 uM NADPH, and 4 mM octane in 1% ethanol and potassium phosphate buffer. Propane reactions contained 1 uM P450, 500 uM NADPH, and propane-saturated potassium phosphate buffer. Coupling was determined by ratio of product formation rate to NADPH consumption rate. Total turnover numbers were determined as nmol product/nmol enzyme. Octane reactions contained 10-25 nM P450, 500 uM NADPH, and 4 mM octane in 1% ethanol and potassium phosphate buffer. Propane reactions contained 10-25 nM protein, potassium phosphate buffer saturated with propane, and an NADPH regeneration system containing 100 uM NADP+, 2 U/mL isocitrate dehydrogenase, and 10 mM isocitrate.
For Table 13, total turnover numbers were determined as nmol product/nmol protein. […] The rates of product formation were measured by GC over 20 s as nmol total products/min/nmol protein. The reactions contained P450 (200 nM), NADPH (500 μM) and octane (2 mM) in ethanol (2%) and potassium phosphate buffer (0.1 M, pH 8.0). The rates of NADPH oxidation were measured over 20 s at 340 nm as nmol NADPH/min/nmol protein. The reactions contained P450 (200 nM), NADPH (160 μM), and octane (2 mM) in ethanol (2%) and potassium phosphate buffer (0.1 M, pH 8.0). The background NADPH oxidation rate (without substrate) rate was 220/min. The coupling efficiency is the ratio of product formation rate to NADPH oxidation rate.
The activity of BM-3-A328V on CM and other substrates such as HME, DME, and propane was further investigated by measuring product formation rate, cofactor consumption and coupling efficiency (Table 14). This mutant was also found to be capable to hydroxylate ethane to ethanol, although only for a total of about 5-10 turnovers. In Table 14 “consumption” rates are expressed as nmol NADPH/nmol enzyme/min and “product formation” rates are expressed as nmol product/nmol enzyme/min.

Data set [2] in a line: T50 determination (heat inactivation of CO-binding). It counts as physicochemical. The method, then:
T50 determination. A solution of purified enzyme (1-3 μM) in 100 mM KPi pH 8.0 buffer was transferred on a PCR 96-well plate and incubated for 10 minutes at different temperatures (from 37° C. to 60° C.) in a PCR thermocycler. The plate was then cooled on ice, centrifuged at 1500 g for 10 min. 160 μL of the protein solution was then transferred on a 96-well microtiter plate with 40 μL of sodium hydrosulfite 0.1 M in 1 M KPi pH 8.0. A protein sample incubated at room temperature and one incubated on ice were included in the series. Concentration of folded protein was then determined by measuring CO-binding difference spectra using absorption at 450 and 490 nm and extinction coefficient ε450-490=91,000 M^−1 cm^−1. CO-binding signals were normalized to protein concentration of the sample incubated at 4° C. T50 values were calculated as midpoint inactivation temperatures from nonlinear fitting to the heat-inactivation curves. Experiments were carried out in triplicate.
As a first step, we aimed at increasing the thermostability of 35E11 heme domain in order to obtain a more ‘evolvable’ parent. […] To regain stability and allow further evolution, stabilizing mutations, derived from a thermostable peroxygenase, was tested in single and in combination (Table 16). The effect on enzyme's thermostability of each single mutation or combination thereof on thermostability was evaluated by monitoring temperature-dependent inactivation of the enzyme's CO-binding (FIG. 36C). Among 35E11 derivatives, ETS8 was selected as the best candidate for further evolution experiments, in that its higher thermostability (ΔT50=+5.1° C.) was accompanied by only a 20% decrease in propane activity on propane. […]
T50 values determined from heat-inactivation curves of heme-dependent CO-binding spectral shift show how mutations accumulated during laboratory evolution affected enzyme stability (FIG. 37E) and enable an estimation per-mutation stability penalties for each directed evolution round (FIG. 37F). […]

For data set [3] the following is noted: lauric acid; cited from earlier work.

B1: 35-E11: P450 BM-3 variant, SEQ ID NO:7: 53-5H substitutions plus E464G and I710T (protein)
chain: TIKEMPQPKTFGELKNLPLLNTDKPVQALMKIADELGEIFKFEAPGCVTRYLSSQRLIKEACDESRFDKNLSQALKFFRDFSGDGLFTSWTHEINWKKAHNILLPSFSQQAMKGYHAMMVDIAVQLVQKWERLNADEHIEVSEDMTRLTLDTIGLCGFNYRFNSFYRDQPHPFIISMVRALDEVMNKLQRANPDDPAYDENKRQCQEDIKVMNDLVDKIIADRKARGEQSDDLLTQMLNGKDPETGEPLDDGNISYQIITFLIAGHETTSGLLSFALYFLVKNPHVLQKVVEEAARVLVDPVPSYKQVKQLKYVGMVLNEALRLWPTFPAFSLYAKEDTVLGGEYPLEKGDEVMVLIPQLHRDKTIWGDDVEEFRPERFENPSAIPQHAFKPFGNGQRACIGQQFALHEATLVLGMMLKHFDFEDHTNYELDIKETLTLKPEGFVVKAKSKKIPLGGIPSPSTGQSAKKVRKKAENAHNTPLLVLYGSNMGTAEGTARDLADIAMSKGFAPQVATLDSHAGNLPREGAVLIVTASYNGHPPDNAKQFVDWLDQASADEVKGVRYSVFGCGDKNWATTYQKVPAFIDETLAAKGAENIADRGEADASDDFEGTYEEWREHMWSDVAAYFNLDIENSEDNKSTLSLQFVDSAADMPLAKMHGAFSTNVVASKELQQPGSARSTRHLEIELPKEASYQEGDHLGVIPRNYEGTVNRVTARFGLDASQQIRLEAEEEKLAHLPLAKTVSVEELLQYVELQDPVTRTQLRAMAAKTVCPPHKVELEALLEKQAYKEQVLAKRLTMLELLEKYPACEMKFSEFIALLPSIRPRYYSISSSPRVDEKQASITVSVVSGEAWSGYGEYKGIASNYLAELQEGDTITCFISTPQSEFTLPKDPETPLIMVGPGTGVAPFRGFVQARKQLKEQGQSLGEAHLYFGCRSPHEDYLYQEELENAQSEGIITLHTAFSRMPNQPKTYVQHVMEQDGKKLIELLDQGAHFYICGDGSQMAPAVEATLMKSYADVHQVSEADARLWLQQLEEKGRYAKDVWAG
modifications: mutant P450 35-E11 protein sequence
With B1, the Coupling efficiency in data set [1] (Octane) stood at 64%; in data set [1] (ethane, product formation rate/NADPH oxidation rate), 0.08%; in data set [1] (propane) it was 26%. The NADPH oxidation rate is about 520 min⁻¹ in data set [1] (ethane); 390 min⁻¹ in data set [1] (no substrate); 660 min⁻¹ in data set [1] (octane, 1% ethanol); 800 min⁻¹ in data set [1] (propane). The T50 in data set [2] (10 minutes incubation, midpoint inactivation temperature of CO-binding) was found to be 43.4 ± 0.6 °C. Also, the ΔT50 is 0 °C in data set [2] (relative to 35E11) and −11.6 °C in data set [2] (stability loss from wild-type to 35E11).

B2: Wild-type BM-3: wild-type cytochrome P450 BM-3 from Bacillus megaterium, SEQ ID NO:1 (protein, listed as Bacillus megaterium)
chain: TIKEMPQPKTFGELKNLPLLNTDKPVQALMKIADELGEIFKFEAPGRVTRYLSSQRLIKEACDESRFDKNLSQALKFVRDFAGDGLFTSWTHEKNWKKAHNILLPSFSQQAMKGYHAMMVDIAVQLVQKWERLNADEHIEVPEDMTRLTLDTIGLCGFNYRFNSFYRDQPHPFITSMVRALDEAMNKLQRANPDDPAYDENKRQFQEDIKVMNDLVDKIIADRKASGEQSDDLLTHMLNGKDPETGEPLDDENIRYQIITFLIAGHETTSGLLSFALYFLVKNPHVLQKAAEEAARVLVDPVPSYKQVKQLKYVGMVLNEALRLWPTAPAFSLYAKEDTVLGGEYPLEKGDELMVLIPQLHRDKTIWGDDVEEFRPERFENPSAIPQHAFKPFGNGQRACIGQQFALHEATLVLGMMLKHFDFEDHTNYELDIKETLTLKPEGFVVKAKSKKIPLGGIPSPSTEQSAKKVRKKAENAHNTPLLVLYGSNMGTAEGTARDLADIAMSKGFAPQVATLDSHAGNLPREGAVLIVTASYNGHPPDNAKQFVDWLDQASADEVKGVRYSVFGCGDKNWATTYQKVPAFIDETLAAKGAENIADRGEADASDDFEGTYEEWREHMWSDVAAYFNLDIENSEDNKSTLSLQFVDSAADMPLAKMHGAFSTNVVASKELQQPGSARSTRHLEIELPKEASYQEGDHLGVIPRNYEGIVNRVTARFGLDASQQIRLEAEEEKLAHLPLAKTVSVEELLQYVELQDPVTRTQLRAMAAKTVCPPHKVELEALLEKQAYKEQVLAKRLTMLELLEKYPACEMKFSEFIALLPSIRPRYYSISSSPRVDEKQASITVSVVSGEAWSGYGEYKGIASNYLAELQEGDTITCFISTPQSEFTLPKDPETPLIMVGPGTGVAPFRGFVQARKQLKEQGQSLGEAHLYFGCRSPHEDYLYQEELENAQSEGIITLHTAFSRMPNQPKTYVQHVMEQDGKKLIELLDQGAHFYICGDGSQMAPAVEATLMKSYADVHQVSEADARLWLQQLEEKGRYAKDVWAG
Consider B2, for which the “hydroxylation at the ω-1 position” value in data set [3] was 48%.
